In the data set the target is T1, kUNG (kUNGΔ18), uracil-DNA glycosylase (Kaposi's sarcoma-associated herpesvirus …, UniProt F5HFA1 19-255).
T1 sequence: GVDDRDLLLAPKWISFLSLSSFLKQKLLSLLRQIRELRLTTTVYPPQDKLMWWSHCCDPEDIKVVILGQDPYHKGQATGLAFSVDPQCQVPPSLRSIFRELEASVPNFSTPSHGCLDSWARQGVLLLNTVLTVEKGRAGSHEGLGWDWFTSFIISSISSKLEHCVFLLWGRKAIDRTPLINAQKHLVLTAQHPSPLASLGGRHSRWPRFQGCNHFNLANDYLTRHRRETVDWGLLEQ
Nature of the data set: X-ray crystallography; product complex after uracil cleavage; 100 mM Mg acetate in crystallisation; Crystallisation: protein:DNA 1:1.2, annealing buffer 20 mM Tris-HCl pH 7.4, 100 mM NaCl, 20 mM MgCl2; crystals in 100 mM sodium acetate pH 4.5, 100 mM Mg acetate, 8% PEG 8000, 16 °C. Km/Vmax of mutants (Table 3) are turnover only and left out. The conditions noted are these: protein: recombinant; tags: N-terminal 6xHis-TEV cleaved; Ser-Ala-Ser remains; label: 5'-FAM on strand 1; 5' overhang 1 nt (strand 1); U:A pair.

B1: 5'FAM-idu_2 duplex (dsDNA)
DNA 1: AAAGATAACATT
DNA 2: AATGTUATCTT
modifications: dU at position 6 of strand 2; converted to abasic site (beta-anomer deoxyribose) in the product complex, no density for uracil
Consider B1, for which the binding result is given as “binds”.
